Data reported in the supplement of paper PMC7877785.
± gives the uncertainty stated by the source.

Experiment: self-splicing fitness, log relative to wild type (ln ratio); higher = more splicing; Tetrahymena group I intron in knt gene, E. coli kanamycin selection, DiMSum; sequences stand for … in CUCUCU…GGAGGGAAAAGUUAUCAGGCAUGCACCUGGUAGCUAGUCUUUAAACCAAUAGAUUGCAUCGGUUUAAAAGGCAAGACCGUCAAAUUGCGGGAAAGGGGUCAACAGCCGUUCAGUACCAAGUCUCAGGGGAAACUUUGAGAUGGCCUUGCAAAGGGUAUGGUAAUAAGCUGACGGACAUGGUCCUAACCACGCAGCCAAGUCCUAAGUCAACAGAUCUUCUGUUGAUAUGGAUGCAGUUCACAGACUAAAUGUCGGUCGGGGAAGAUGUAUUCUUCUCAUAAGAUAUAGUCGGACCUCUCCUUAAUGGGAGCUAGCGGAUGAAGUGAUGCAACACUGGAGCCGCUGGGAACUAAUUUGUAUGCGAAAGUAUAUUGAUUAGUUUUGGAGUACUCGUGGUCG
Summary of the method: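 Library with all eight P1ex-region intron nucleotides randomised, intron inside the knt kanamycin-resistance gene on pET-22b(+), in E. coli BL21(DE3). Cells grew overnight at 37°C or 30°C on LB agar with or without 25 μg/mL kanamycin (plus 100 μg/mL carbenicillin, 50 μM IPTG, 0.2% rhamnose), in six replicate transformations. Pooled colonies were amplicon-sequenced on Illumina HiSeq 2500. DiMSum fitness is the error-weighted combination of wild-type-normalised replicate fold changes, kanamycin versus none.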

Sequence | self-splicing fitness (ln) (30 °C) | self-splicing fitness (ln) (37 °C)
GACUAGCAAUAUUACGUAGC | -2.47 ± 0.11 | -1.4 ± 0.1
GACUAGCAAUAUUACGUCGU | -3.23 ± 0.18 | -1.47 ± 0.13
GACUAGCAAUAUUACGUCUA | -2.89 ± 0.2 | -0.852 ± 0.12
GACUAGCAAUAUUACGUGUA | -1.06 ± 0.067 | -0.258 ± 0.069
GACUAGCAAUAUUACGUUCA | -0.661 ± 0.11 | -0.533 ± 0.12
GACUAGCAAUAUUACGUUGU | -3.19 ± 0.14 | -2.17 ± 0.12
GAGAAGCAAUAUUACGAAAA | -3.53 ± 0.4 | -2.2 ± 0.31
GAGAAGCAAUAUUACGAACC | -0.324 ± 0.14 | -0.188 ± 0.22
GAGAAGCAAUAUUACGAGCA | -1.79 ± 0.15 | -0.727 ± 0.14
GAGAAGCAAUAUUACGCGAA | -2 ± 0.11 | -1.93 ± 0.17
GAGAAGCAAUAUUACGCUGG | -2.87 ± 0.41 | -1.64 ± 0.41
GAGAAGCAAUAUUACGCUUA | -2.41 ± 0.12 | -1.24 ± 0.13
GAGAAGCAAUAUUACGGAAG | -3.57 ± 0.16 | -2.39 ± 0.14
GAGAAGCAAUAUUACGGCUA | 0.0865 ± 0.09 | -0.0778 ± 0.1
GAGAAGCAAUAUUACGGGCC | -2.03 ± 0.22 | -2.56 ± 0.41
GAGAAGCAAUAUUACGGGCU | -2.57 ± 0.14 | -1.16 ± 0.14
GAGAAGCAAUAUUACGGGGA | -2.34 ± 0.22 | -2.67 ± 0.28
GAGAAGCAAUAUUACGGGUA | -2.02 ± 0.15 | -2.14 ± 0.16
GAGAAGCAAUAUUACGGUCG | -0.943 ± 0.11 | -0.253 ± 0.11
GAGAAGCAAUAUUACGUAAC | -1.62 ± 0.11 | -0.536 ± 0.12
GAGAAGCAAUAUUACGUCCC | -0.258 ± 0.28 | -0.337 ± 0.29
GAGAAGCAAUAUUACGUUAC | -3.39 ± 0.27 | -3.05 ± 0.35
GAGAAGCAAUAUUACGUUGU | -3.19 ± 0.19 | -3.31 ± 0.32
GAGCAGCAAUAUUACGACCA | -1.17 ± 0.14 | -1.02 ± 0.15

Sequence | self-splicing fitness (ln) (30 °C) | self-splicing fitness (ln) (37 °C)
GAGCAGCAAUAUUACGACGG | -4.27 ± 0.26 | -2.18 ± 0.17
GAGCAGCAAUAUUACGAGAG | – | -2.19 ± 0.28
GAGCAGCAAUAUUACGAUUU | -0.179 ± 0.068 | -0.211 ± 0.094
GAGCAGCAAUAUUACGCACA | -0.256 ± 0.21 | -0.415 ± 0.14
GAGCAGCAAUAUUACGCACG | -1.11 ± 0.061 | -0.692 ± 0.083
GAGCAGCAAUAUUACGCAUC | -3.22 ± 0.2 | -3.08 ± 0.37
GAGCAGCAAUAUUACGCCUG | -2.2 ± 0.19 | -2.32 ± 0.42
GAGCAGCAAUAUUACGCGCG | -1.25 ± 0.1 | 0.406 ± 0.12
GAGCAGCAAUAUUACGCUGU | -3.32 ± 0.18 | -2.52 ± 0.19
GAGCAGCAAUAUUACGGACG | -2.19 ± 0.42 | -1.72 ± 0.33
GAGCAGCAAUAUUACGGAUU | -1.2 ± 0.1 | 0.538 ± 0.11
GAGCAGCAAUAUUACGGCCA | -0.255 ± 0.097 | -0.361 ± 0.14
GAGCAGCAAUAUUACGGGAC | -2.82 ± 0.19 | -2.74 ± 0.15
GAGCAGCAAUAUUACGUAGG | -2.83 ± 0.13 | -2.54 ± 0.2
GAGCAGCAAUAUUACGUCAA | -1.14 ± 0.24 | -2.12 ± 0.25
GAGCAGCAAUAUUACGUCAG | -3.23 ± 0.21 | -2.12 ± 0.26
GAGCAGCAAUAUUACGUCGU | -1.35 ± 0.13 | -2.39 ± 0.2
GAGCAGCAAUAUUACGUCUC | -2.48 ± 0.15 | -2.23 ± 0.22
GAGCAGCAAUAUUACGUGAC | -2.38 ± 0.15 | -1.64 ± 0.15
GAGCAGCAAUAUUACGUGCC | -1.58 ± 0.41 | -1.34 ± 0.26
GAGCAGCAAUAUUACGUUAC | -2.55 ± 0.14 | -1.75 ± 0.13
GAGGAGCAAUAUUACGAAUG | – | -1.7 ± 0.43
GAGGAGCAAUAUUACGACCG | – | -0.621 ± 0.31
GAGGAGCAAUAUUACGACGG | -3.25 ± 0.3 | -2.07 ± 0.31

Sequence | self-splicing fitness (ln) (30 °C) | self-splicing fitness (ln) (37 °C)
GAGGAGCAAUAUUACGAGAG | -2.77 ± 0.32 | -2.76 ± 0.41
GAGGAGCAAUAUUACGAGCA | -3.52 ± 0.48 | -2.4 ± 0.46
GAGGAGCAAUAUUACGAUAU | -1.34 ± 0.26 | -2.53 ± 0.45
GAGGAGCAAUAUUACGCAGA | -3.91 ± 0.34 | -2.86 ± 0.32
GAGGAGCAAUAUUACGCGGU | -3.21 ± 0.28 | -2.76 ± 0.31
GAGGAGCAAUAUUACGCUCA | -0.973 ± 0.24 | -0.181 ± 0.27
GAGGAGCAAUAUUACGGAAA | -3.13 ± 0.16 | -2.94 ± 0.26
GAGGAGCAAUAUUACGGCUA | -1.75 ± 0.12 | -1.37 ± 0.11
GAGGAGCAAUAUUACGGGAC | -2.42 ± 0.27 | -2.41 ± 0.27
GAGGAGCAAUAUUACGGGGG | -3.09 ± 0.27 | -3.13 ± 0.47
GAGGAGCAAUAUUACGUCGC | – | -1.54 ± 0.33
GAGGAGCAAUAUUACGUGGU | -4.05 ± 0.34 | -2.77 ± 0.33
GAGGAGCAAUAUUACGUGUG | -2.33 ± 0.22 | -2.54 ± 0.26
GAGGAGCAAUAUUACGUGUU | -3.03 ± 0.21 | -3.82 ± 0.42
GAGGAGCAAUAUUACGUUCA | -1.18 ± 0.081 | -0.275 ± 0.11
GAGUAGCAAUAUUACGAAGG | – | -2.74 ± 0.44
GAGUAGCAAUAUUACGACAG | -3.07 ± 0.44 | -2.99 ± 0.24
GAGUAGCAAUAUUACGACAU | -0.282 ± 0.014 | -0.127 ± 0.033
GAGUAGCAAUAUUACGACGG | -2.74 ± 0.2 | -1.57 ± 0.25
GAGUAGCAAUAUUACGAGUG | -2.34 ± 0.091 | -0.452 ± 0.11
GAGUAGCAAUAUUACGAUAG | -3.53 ± 0.26 | -2.61 ± 0.28
GAGUAGCAAUAUUACGAUCA | 0.0664 ± 0.19 | -0.761 ± 0.21
GAGUAGCAAUAUUACGAUCC | -1.55 ± 0.092 | -0.509 ± 0.11
GAGUAGCAAUAUUACGAUGU | -2.23 ± 0.11 | -0.716 ± 0.12

Sequence | self-splicing fitness (ln) (30 °C) | self-splicing fitness (ln) (37 °C)
GAGUAGCAAUAUUACGAUUA | -0.577 ± 0.092 | -0.317 ± 0.081
GAGUAGCAAUAUUACGGACU | -0.25 ± 0.072 | -0.487 ± 0.096
GAGUAGCAAUAUUACGGAGG | -3.45 ± 0.36 | -0.837 ± 0.36
GAGUAGCAAUAUUACGGGCA | -1.18 ± 0.22 | -1.05 ± 0.19
GAGUAGCAAUAUUACGGGUC | -2.57 ± 0.2 | -1.81 ± 0.18
GAGUAGCAAUAUUACGGGUG | -2.78 ± 0.14 | -1.71 ± 0.14
GAGUAGCAAUAUUACGGUGA | -1.93 ± 0.16 | -1.62 ± 0.14
GAGUAGCAAUAUUACGUGGC | -2.33 ± 0.15 | -2.03 ± 0.28
GAGUAGCAAUAUUACGUGGG | -3.53 ± 0.24 | -2.94 ± 0.23
GAGUAGCAAUAUUACGUUAA | -3.94 ± 0.22 | -2.33 ± 0.18
GAGUAGCAAUAUUACGUUAG | -3.69 ± 0.37 | -2.96 ± 0.34
GAUAAGCAAUAUUACGAAUG | -1.28 ± 0.14 | -0.794 ± 0.15
GAUAAGCAAUAUUACGAUCG | -0.76 ± 0.12 | -0.691 ± 0.14
GAUAAGCAAUAUUACGAUCU | 0.509 ± 0.17 | -1.55 ± 0.19
GAUAAGCAAUAUUACGAUUU | -0.385 ± 0.083 | 1.36 ± 0.12
GAUAAGCAAUAUUACGCAUG | -1.21 ± 0.084 | -0.777 ± 0.11
GAUAAGCAAUAUUACGCCUA | -0.016 ± 0.19 | -0.316 ± 0.19
GAUAAGCAAUAUUACGCCUU | -0.931 ± 0.1 | -0.199 ± 0.14
GAUAAGCAAUAUUACGCGAG | -1.04 ± 0.073 | -0.376 ± 0.079
GAUAAGCAAUAUUACGCGCU | -1.44 ± 0.14 | -1.47 ± 0.15
GAUAAGCAAUAUUACGCGUA | -0.996 ± 0.14 | -0.968 ± 0.16
GAUAAGCAAUAUUACGCGUC | -4.66 ± 0.36 | -2.53 ± 0.33
GAUAAGCAAUAUUACGCUGG | -2.66 ± 0.14 | -2.04 ± 0.2
GAUAAGCAAUAUUACGGAUU | -3.19 ± 0.14 | -1.91 ± 0.12
